According to patent US20180325997A1:

Target: hTERT (human telomerase reverse transcriptase) (human) (UniProt O14746)
Test: cell-based or functional assay

Sequence of hTERT (human telomerase reverse transcriptase) (human) (O14746 whole entry): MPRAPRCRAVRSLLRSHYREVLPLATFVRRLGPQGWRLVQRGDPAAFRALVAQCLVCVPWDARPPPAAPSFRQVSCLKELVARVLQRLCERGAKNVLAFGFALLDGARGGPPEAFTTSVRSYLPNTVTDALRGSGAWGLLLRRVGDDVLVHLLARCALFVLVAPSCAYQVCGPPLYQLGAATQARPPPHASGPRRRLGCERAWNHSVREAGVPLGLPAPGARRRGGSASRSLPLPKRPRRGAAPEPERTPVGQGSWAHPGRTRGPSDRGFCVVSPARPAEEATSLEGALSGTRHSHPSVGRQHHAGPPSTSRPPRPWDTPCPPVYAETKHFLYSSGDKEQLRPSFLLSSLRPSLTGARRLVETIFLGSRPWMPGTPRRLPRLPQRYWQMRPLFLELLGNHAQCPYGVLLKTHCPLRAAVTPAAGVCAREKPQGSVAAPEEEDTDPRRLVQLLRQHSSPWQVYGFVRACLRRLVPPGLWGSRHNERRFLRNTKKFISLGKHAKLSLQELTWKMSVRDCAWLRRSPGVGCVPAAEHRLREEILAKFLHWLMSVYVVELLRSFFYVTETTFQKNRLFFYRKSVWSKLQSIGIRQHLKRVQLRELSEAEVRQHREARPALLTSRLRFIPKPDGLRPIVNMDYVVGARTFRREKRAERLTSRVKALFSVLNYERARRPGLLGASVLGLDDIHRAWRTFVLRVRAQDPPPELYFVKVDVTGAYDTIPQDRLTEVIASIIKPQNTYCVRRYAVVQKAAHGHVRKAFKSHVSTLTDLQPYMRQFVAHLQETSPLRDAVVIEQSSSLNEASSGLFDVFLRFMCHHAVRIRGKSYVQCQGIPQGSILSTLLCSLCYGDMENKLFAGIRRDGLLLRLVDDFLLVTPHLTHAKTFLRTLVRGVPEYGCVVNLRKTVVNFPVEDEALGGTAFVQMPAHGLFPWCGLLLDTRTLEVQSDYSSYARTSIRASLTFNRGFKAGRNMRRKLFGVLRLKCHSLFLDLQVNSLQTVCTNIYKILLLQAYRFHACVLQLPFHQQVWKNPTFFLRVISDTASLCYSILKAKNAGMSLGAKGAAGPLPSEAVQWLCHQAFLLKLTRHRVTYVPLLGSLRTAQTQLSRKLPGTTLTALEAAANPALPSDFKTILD

Substance: LRP102-295::FLAG fragment (from UniProt P14206 102-295) (receptor)
- relative telomerase activity (TRAPEZE kit, real time PCR) in transfected MRC 5 cells against non-transfected cells: 83.4 % elevation
